Experimental data as given in doi:10.1101/2021.11.08.467404.
Values belong to the substance of their own block, whether it stands above or below them.

Tests used:
[1] = target: microtubules polymerised from porcine brain tubulin (porcine) (UniProt P02550); assay: FRAP of fluorescent protein on immobilised microtubules
[2] = target: microtubules polymerised from porcine brain tubulin (porcine) (UniProt P02550); assay: single-molecule TIRF microscopy on immobilised microtubules
[3] = target: microtubules polymerised from porcine brain tubulin (porcine) (UniProt P02550); assay: TIRF microscopy of fluorescent protein on immobilised microtubules

Sequence of UniProt P02550 (P02550 whole entry): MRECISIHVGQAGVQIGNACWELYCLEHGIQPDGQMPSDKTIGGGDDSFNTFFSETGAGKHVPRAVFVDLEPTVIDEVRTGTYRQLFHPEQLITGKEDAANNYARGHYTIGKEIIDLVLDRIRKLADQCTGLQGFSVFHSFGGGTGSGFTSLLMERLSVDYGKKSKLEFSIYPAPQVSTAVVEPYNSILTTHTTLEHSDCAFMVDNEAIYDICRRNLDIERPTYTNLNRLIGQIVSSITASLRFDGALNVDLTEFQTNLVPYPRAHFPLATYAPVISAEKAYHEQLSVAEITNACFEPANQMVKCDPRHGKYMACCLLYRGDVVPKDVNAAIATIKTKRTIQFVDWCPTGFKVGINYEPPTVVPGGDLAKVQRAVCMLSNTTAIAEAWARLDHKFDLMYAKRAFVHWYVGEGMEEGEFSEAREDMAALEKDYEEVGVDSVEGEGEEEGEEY

fold turnover (FRAP) outside against inside envelopes [1]: 4 fold
Substance: GFP-MAP2c (natural protein)

fold dwell time of single molecules against MAP2c [2]: 2 fold
Substance: TMR-MAP4 (full-length human MAP4, isoform 1) (from UniProt P27816 1-1152) (natural protein)

landing rate (with 600 nM tau-mCherry) [3]: 0.23 μm^-1s^-1
Substance: kinesin-1-GFP (from UniProt P33176 1-963) (natural protein)

fold increase of dwell time inside GFP-MAP2c envelopes against outside [2]: 3 fold
Substance: TMR-MAP2c (natural protein)
